The results in this text go back to patent publication US20200399314A1 (MEDIKINE, published 2020).

Bridge positions count the residues as written; N and C are the ends. Ends that are not written are not given here.

The term IC50 denotes the concentration that gives 50% inhibition. Read a high IC50 as weaker potency in that assay.

The labels stand for the following.
T1: human IL-2Rα subunit (human, UniProt P01589 22-213, limits assumed)
T1 construct: also called CD25
T1 sequence (looked up): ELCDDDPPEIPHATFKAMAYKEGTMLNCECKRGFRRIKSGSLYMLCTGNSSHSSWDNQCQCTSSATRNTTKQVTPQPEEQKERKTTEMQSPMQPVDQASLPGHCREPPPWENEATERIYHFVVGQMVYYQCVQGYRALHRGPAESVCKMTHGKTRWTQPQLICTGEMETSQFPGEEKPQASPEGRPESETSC

B1: SEQ ID NO 148 (peptide)
peptide: GGCSLVWADSWVCIF
B2: SEQ ID NO 161 (peptide)
peptide: RRCTLVFLDSWECIF
modifications: disulfide 3-13 (inferred)
B3: SEQ ID NO 158 (peptide)
peptide: ARCSLVWDEAWVCIF
B4: SEQ ID NO 136 (peptide)
peptide: TRMCFDDPGWHSCPVV
B5: SEQ ID NO 155 (peptide)
peptide: QACQLVWLDSWVCIF
B6: SEQ ID NO 154 (peptide)
peptide: RGCSLVWSGSWECIF
B7: SEQ ID NO 159 (peptide)
peptide: RGCSLVWAGSWECIF
B8: SEQ ID NO 140 (peptide)
peptide: WLPCDDYPGHGYCYSR
modifications: disulfide 4-13 (inferred)
B9: SEQ ID NO 139 (peptide)
peptide: YASCTYLPGHRGCTLV
B10: SEQ ID NO 160 (peptide)
peptide: SRCSLVWAENWVCIF
B11: SEQ ID NO 157 (peptide)
peptide: SGCSLQWADGWVCIF
modifications: disulfide 3-13 (inferred)
B12: SEQ ID NO 147 (peptide)
peptide: RGCMLRLQPELACVF
B13: SEQ ID NO 135 (peptide)
peptide: RQFCLVSPGYEDCWFV
B14: SEQ ID NO 137 (peptide)
peptide: TRWCSLHPGVGECVTL
B15: SEQ ID NO 12 (peptide)
peptide: FVPWPEYFLQIM
B16: SEQ ID NO 145 (peptide)
peptide: NHCTLSKTYPWVCVF
modifications: disulfide 3-13 (inferred)
B17: SEQ ID NO 138 (peptide)
peptide: TTVCDYHPGSRYCINE
B18: SEQ ID NO 146 (peptide)
peptide: QRCNRSLLDALICQA
B19: SEQ ID NO 144 (peptide)
peptide: SACQLKWDEGWTCLF
B20: SEQ ID NO 153 (peptide)
peptide: SRCTLVFDDSWVCVF
B21: SEQ ID NO 152 (peptide)
peptide: SRCSLVWTDTWVCVF
B22: SEQ ID NO 156 (peptide)
peptide: VGCSLVWTDRWECIF
modifications: disulfide 3-13 (inferred)
B23: SEQ ID NO 11 (peptide)
peptide: FIPWDEYFKQVL
B24: SEQ ID NO 13 (peptide)
peptide: FIPWEEYFSQLL
B25: SEQ ID NO 14 (peptide)
peptide: FIPWPEYFSQLL

This assay has as its target T1, human IL-2Rα subunit.
B1: the IC50 is less than 100 µM. As to B2, the half-inhibitory concentration (IC50) is less than 100 µM. For B3 the value was less than 100 µM; for B4, less than 100 µM; for B5, less than 100 µM. The molecule B6 gave an IC50 of less than 100 µM. On to B7, for which the IC50 is less than 100 µM. The molecule B8 returned an IC50 of less than 100 µM. Consider B9, for which the IC50 is less than 100 µM. In turn, B10 had an IC50 of less than 100 µM.

B11: the IC50 was less than 100 µM. For B12 the value was less than 100 µM; for B13, less than 100 µM. For B14 the value was less than 100 µM. The same measure for B15: less than 100 µM; for B16: less than 100 µM; for B17: less than 100 µM. B18 yielded an IC50 of less than 100 µM.

Consider B19, for which the IC50 is less than 100 µM.

Molecule B20 came in with an IC50 of less than 100 µM. B21: the IC50 was less than 100 µM. On to B22, for which the IC50 is less than 100 µM. With B23, the IC50 was less than 100 µM. B24: the IC50 was less than 100 µM. The same measure for B25: less than 100 µM.
